In paper PMC5214978 (Structure (London, England : 1993), 2016):
Values joined by “and” are separate entries in the source; they are usually repeats but may differ in a detail not shown here. Equal entries are not always repeated.

Molecular target: the molecule itself
Assay: cross-linking

B1: Anion exchanger 1 (AE1) (natural protein, human (endogenous in erythrocytes), UniProt P02730 1-911, looked up)
chain: MEELQDDYEDMMEENLEQEEYEDPDIPESQMEEPAAHDTEATATDYHTTSHPGTHKVYVELQELVMDEKNQELRWMEAARWVQLEENLGENGAWGRPHLSHLTFWSLLELRRVFTKGTVLLDLQETSLAGVANQLLDRFIFEDQIRPQDREELLRALLLKHSHAGELEALGGVKPAVLTRSGDPSQPLLPQHSSLETQLFCEQGDGGTEGHSPSGILEKIPPDSEATLVLVGRADFLEQPVLGFVRLQEAAELEAVELPVPIRFLFVLLGPEAPHIDYTQLGRAAATLMSERVFRIDAYMAQSRGELLHSLEGFLDCSLVLPPTDAPSEQALLSLVPVQRELLRRRYQSSPAKPDSSFYKGLDLNGGPDDPLQQTGQLFGGLVRDIRRRYPYYLSDITDAFSPQVLAAVIFIYFAALSPAITFGGLLGEKTRNQMGVSELLISTAVQGILFALLGAQPLLVVGFSGPLLVFEEAFFSFCETNGLEYIVGRVWIGFWLILLVVLVVAFEGSFLVRFISRYTQEIFSFLISLIFIYETFSKLIKIFQDHPLQKTYNYNVLMVPKPQGPLPNTALLSLVLMAGTFFFAMMLRKFKNSSYFPGKLRRVIGDFGVPISILIMVLVDFFIQDTYTQKLSVPDGFKVSNSSARGWVIHPLGLRSEFPIWMMFASALPALLVFILIFLESQITTLIVSKPERKMVKGSGFHLDLLLVVGMGGVAALFGMPWLSATTVRSVTHANALTVMGKASTPGAAAQIQEVKEQRISGLLVAVLVGLSILMEPILSRIPLAVLFGIFLYMGVTSLSGIQLFDRILLLFKPPKYHPDVPYVKRVKTWRMHLFTGIQIICLAVLWVVKSTPASLALPFVLILTVPLRRVLLPLIFRNVELQCLDADDAKATFDEEEGRDEYDEVAMPV
modifications: extensive and variable glycosylation (sites not given)
stoichiometry N: 2 and 4
